Data: the supplement of paper PMC10567573

B1: KCTD10 (parent)
chain: SSKEEQKLIATSNKPAVKLLYNRS
B2: PRAME (parent)
chain: KKLKIFAMPMQDIKMILKMVQLDS

Variants of: B1
Test: protein stability index of a GFP-peptide fusion (GPS, HEK-293T) (PSI 1-6); higher = more stable
Conditions: c terminus: a fixed tail appended
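Note: lentivirally expressed fusions sorted by FACS into six bins by GFP to DsRed ratio, PSI derived from sequencing read proportions per bin multiplied by bin number.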

Protein stability index, by site and new letter:
S24: V 3.5
N13: G 4.28 | P 4.12 | Y 3.38 | M 3.69 | D 4.73
R23: F 3.29 | K 4.29
K18: V 3.13 | Q 4.39 | G 4.02 | L 3.25 | E 4.34 | N 4.26
S1: C 3.82 | Y 3.18 | K 4.12
Q6: T 4.44 | A 4.23 | I 3.33
N22: I 2.71 | L 3.14 | M 2.92 | T 4.12
L19: S 4.18 | N 4.72 | D 4.62 | Q 4.31 | Y 4.56
K7: S 3.55 | M 3.3 | I 3.28 | W 2.87
L20: H 4.48 | W 3.35 | K 4.53 | E 3.98 | M 4.11 | C 3.79
S12: L 3.72 | P 4.29 | N 4.02
K14: E 4.39 | T 4.04
A16: M 3.84 | W 2.94 | P 3.95 | C 3.74 | F 3.57 | V 3.89 | Q 4.19
A10: R 3.88 | V 3.45 | H 4.2 | M 3.51 | N 4.41 | Q 4.27
I9: E 4.72
S2: A 4.54 | W 3.26 | Y 3.56
V17: Y 3.51 | I 4.02 | E 4.15 | H 4.35 | Q 4.52 | D 4.41
E5: Q 3.83 | A 3.38 | N 3.7 | R 3.59 | Y 2.97 | G 1.71 | W 1.79 | L 2.83
L8: W 3.79 | P 4.88 | R 4.34
Y21: L 4.06 | N 4.58
P15: V 3.13 | H 3.86 | F 3.1 | L 2.93
E4: M 2.82 | D 4.01 | N 3.87 | Y 2.83 | G 3.46 | V 3.5 | Q 4.06
T11: P 3.97 | S 4.26 | D 4.68 | I 3.73 | E 4.58 | K 4.19 | L 3.7
K3: Q 4.25 | R 3.97

Variants of: B2
Test: as above
Conditions: c terminus: a fixed tail appended

Protein stability index: each site, then its substitutions
L3: C 2.1 | N 2.82 | W 2.03 | I 1.63 | R 2.1 | Y 4.33 | S 2.92 | H 3.6 | E 1.06 | M 4.28 | D 3.34
M15: E 2.36 | N 1.59 | R 2.25 | H 3.17 | D 2.22 | Q 1 | A 2.66 | I 2.09 | T 2.15 | G 2.96 | K 3.85 | F 2.51 | V 2.85 | P 1.81 | C 2.02
I5: D 1.82 | K 4.37 | G 4.35 | R 2.43 | N 4.02 | V 3.29 | M 3.17 | A 3.02 | T 2.5 | H 1.77 | P 2.55 | C 2.65 | Y 2.6 | E 3.63 | F 2.77
P9: Y 1.43 | W 4.76 | I 2.11 | V 2.94 | F 2.42 | N 1.79 | T 4.36 | H 2.22 | L 1.62 | C 2.96
A7: K 3.26 | R 2.61 | G 1.38 | Y 4.92 | M 2.6 | W 3.77 | Q 2 | V 2.83 | D 3.87 | I 3.67 | C 2.66 | S 3.04 | N 2.46 | H 2.52 | P 2.85
M10: H 2.12 | A 1.93 | Y 2.52 | E 3.14 | Q 1.93 | D 2.39 | V 3.74 | P 2.72 | K 2.06 | C 2.5 | R 2.7 | T 2.93 | N 2.7 | G 3.5
K14: E 2.98 | C 2.52 | V 2.44 | G 2.88 | N 3.16 | Y 2.42 | I 3.61 | R 1.65 | H 3.17 | S 1.59 | D 3.25 | T 1.64 | P 3.66 | Q 2.64
M8: F 2.88 | P 1.72 | K 2.42 | E 1.39 | W 4.52 | V 3.54 | L 2.91 | C 4.6 | H 3.92 | T 2.71 | A 2.02 | N 3.02 | D 3.23 | R 3.05 | S 2.46
K1: T 3.61 | Q 2.55 | P 3.89 | M 2.68 | H 3.51 | F 4.97 | V 2.08 | A 3.05 | C 2.92 | S 3.56 | D 3.38 | L 2.86 | Y 1.86 | N 3.99 | R 3.39 | E 2.31
I13: S 2.45 | T 1.64 | Y 4.03 | Q 1.93 | N 1.54 | F 2.23 | P 1.32 | W 1.03 | A 2.39 | D 2.66 | E 1.65 | K 1.44 | M 2.88 | H 1.84 | R 2.96 | V 3.55
D12: Q 4.16 | K 2.75 | W 3.37 | P 3.3 | E 2.5 | F 3.57 | C 3.07 | L 2.29 | R 2.17 | T 3.29 | Y 3.17 | N 2.5 | M 4.16 | A 2.14 | I 1.63
K4: P 2.85 | T 3.69 | H 4.52 | F 2.44 | N 1.6 | M 3.45 | S 3.49 | I 3.41 | Q 3.25 | R 1.99 | G 4.41 | W 2.87 | A 2.11 | V 3.08 | C 2.4 | D 1.92 | E 2.02
K2: N 4.46 | T 2.9 | L 2.34 | R 1.59 | V 2.36 | A 2.69 | Q 3.53 | P 2.61 | G 2.86 | M 1.79 | F 2.09 | D 3.31 | S 2.94 | I 3.39 | Y 3.88 | H 3.33
Q11: Y 3.22 | F 3.43 | A 3.71 | V 2.19 | S 2.52 | G 3.84 | N 2.79 | C 2.32 | M 2.31 | W 3.08 | P 3.82 | T 2.39 | R 4.36 | I 2.57 | D 2.47 | L 2.85 | K 3.32 | H 3.43
I16: C 2.5 | L 1.71 | N 1.23 | T 3.06 | G 2.32 | Q 1.6 | H 2.66 | S 3.21 | P 1.63 | K 1.69 | F 3.41 | R 1.75 | D 1.73 | E 1.47
F6: W 4.71 | K 2.72 | C 3.09 | A 2.77 | L 3.92 | M 1.84 | G 2.55 | E 1.52 | T 2.2 | Q 1.59 | D 1.26 | R 3.11 | N 1.3
